The target in one test is T1, 4H121-AA.
T1 chain: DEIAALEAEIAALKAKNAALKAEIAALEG
As to the kind of experiment: two-hybrid library CCmax.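 Further: natural log of median RNA to DNA barcode read ratio; higher means stronger binding.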

A further test has as its target T2, 4H1350-AA.
T2 chain: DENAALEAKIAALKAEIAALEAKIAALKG
Nature of the test: two-hybrid library CCmax.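 Further: natural log of median RNA to DNA barcode read ratio; higher means stronger binding.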 The following applies: mean of both orientations.

Another test deals with T3, 4H1710-AA.
T3 chain: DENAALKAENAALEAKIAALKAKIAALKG
Nature of the test: two-hybrid library CCmax.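 Further: natural log of median RNA to DNA barcode read ratio; higher means stronger binding.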 The following applies: mean of both orientations.

The next test concerns the target T4, 4H1985-AA.
T4 chain: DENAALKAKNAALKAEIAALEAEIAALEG
Nature of the test: two-hybrid library CCmax.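 Further: natural log of median RNA to DNA barcode read ratio; higher means stronger binding.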 As to conditions: mean of both orientations.

A further test has as its target T5, 4H2187-AA.
T5 chain: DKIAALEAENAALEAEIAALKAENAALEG
Nature of the test: two-hybrid library CCmax. The following applies: mean of both orientations.

Another test has as its target T6, 4H233-AA.
T6 chain: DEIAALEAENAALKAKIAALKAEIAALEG
As to the kind of experiment: two-hybrid library CCmax. The following applies: mean of both orientations.

Another test deals with T7, 4H2512-AA.
T7 chain: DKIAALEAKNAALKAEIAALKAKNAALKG
As to the kind of experiment: two-hybrid library CCmax. The following applies: mean of both orientations.

A further test deals with T8, 4H2646-AA.
T8 chain: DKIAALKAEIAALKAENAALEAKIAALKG
Nature of the test: two-hybrid library CCmax. The following applies: mean of both orientations.

In a further test the target is T9, 4H2687-AA.
T9 chain: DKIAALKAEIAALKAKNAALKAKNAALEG
As to the kind of experiment: two-hybrid library CCmax. As to conditions: mean of both orientations.

In the next test the target is T10, 4H2705-AA.
T10 chain: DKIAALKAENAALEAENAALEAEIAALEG
As to the kind of experiment: two-hybrid library CCmax. As to conditions: mean of both orientations.

In the next test the target is T11, 4H2758-AA.
T11 chain: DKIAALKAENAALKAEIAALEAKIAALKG
As to the kind of experiment: two-hybrid library CCmax. The following applies: mean of both orientations.

For the next test, the target named is T12, 4H278-AA.
T12 chain: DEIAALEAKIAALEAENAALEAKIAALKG
As to the kind of experiment: two-hybrid library CCmax. The following applies: mean of both orientations.

The target of a further test is T13, 4H2873-AA.
T13 chain: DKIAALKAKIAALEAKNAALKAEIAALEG
Nature of the test: two-hybrid library CCmax. The following applies: mean of both orientations.

A further test has as its target T14, 4H2985-AA.
T14 chain: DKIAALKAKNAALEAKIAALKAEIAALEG
As to the kind of experiment: two-hybrid library CCmax. As to conditions: mean of both orientations.

For a further test, the target named is T15, 4H3134-AA.
T15 chain: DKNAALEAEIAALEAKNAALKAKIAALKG
Nature of the test: two-hybrid library CCmax. As to conditions: mean of both orientations.

The target in another test is T16, 4H3409-AA.
T16 chain: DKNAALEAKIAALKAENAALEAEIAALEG
As to the kind of experiment: two-hybrid library CCmax. The following applies: mean of both orientations.

The next test deals with T17, 4H3625-AA.
T17 chain: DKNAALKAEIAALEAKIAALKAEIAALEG
As to the kind of experiment: two-hybrid library CCmax. The following applies: mean of both orientations.

For a further test, the target named is T18, 4H390-AA.
T18 chain: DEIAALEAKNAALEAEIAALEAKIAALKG
As to the kind of experiment: two-hybrid library CCmax. The following applies: mean of both orientations.

The next test concerns the target T19, 4H3940-AA.
T19 chain: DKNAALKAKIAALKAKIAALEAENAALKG
Nature of the test: two-hybrid library CCmax. As to conditions: mean of both orientations.

In the next test the target is T20, 4H510-AA.
T20 chain: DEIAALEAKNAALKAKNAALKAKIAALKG
Nature of the test: two-hybrid library CCmax. The following applies: mean of both orientations.

For another test, the target named is T21, 4H775-AA.
T21 chain: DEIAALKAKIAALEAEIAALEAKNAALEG
As to the kind of experiment: two-hybrid library CCmax. The following applies: mean of both orientations.

A further test addresses T22, 4H816-AA.
T22 chain: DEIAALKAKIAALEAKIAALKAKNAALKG
Nature of the test: two-hybrid library CCmax. The following applies: mean of both orientations.

The target in the next test is T23, 4H87-AA.
T23 chain: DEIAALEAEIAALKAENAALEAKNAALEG
Nature of the test: two-hybrid library CCmax. As to conditions: mean of both orientations.

The target in a further test is T24, 4H2696-bH.
T24 chain: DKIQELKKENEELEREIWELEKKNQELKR
As to the kind of experiment: two-hybrid library CCNG1.

The target of a further test is T25, 4H2883-bH.
T25 chain: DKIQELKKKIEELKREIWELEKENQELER
As to the kind of experiment: two-hybrid library CCNG1.

A further test concerns the target T26, 4H2937-bH.
T26 chain: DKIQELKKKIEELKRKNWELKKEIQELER
Nature of the test: two-hybrid library CCNG1.

The next test has as its target T27, 4H2944-bH.
T27 chain: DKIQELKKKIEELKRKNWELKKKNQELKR
As to the kind of experiment: two-hybrid library CCNG1.

The target in another test is T28, 4H342-bH.
T28 chain: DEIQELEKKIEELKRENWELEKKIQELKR
As to the kind of experiment: two-hybrid library CCNG1.

The next test concerns the target T29, 4H48-bH.
T29 chain: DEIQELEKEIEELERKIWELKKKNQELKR
As to the kind of experiment: two-hybrid library CCNG1.

The target in another test is T30, 4H491-bH.
T30 chain: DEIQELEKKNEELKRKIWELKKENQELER
As to the kind of experiment: two-hybrid library CCNG1.

B1: 4H121-AA (peptide)
chain: DEIAALEAEIAALKAKNAALKAEIAALEG
With B1, the interaction score with 4H121-AA was 0.829; with 4H1350-AA, 0.484; with 4H1710-AA, 0.228; with 4H1985-AA, -1.39; in the test with 4H2187-AA, -0.0331; in the test with 4H233-AA, -0.289. Also, the interaction score with 4H2512-AA was -1.66; with 4H2646-AA, 2.21; with 4H2687-AA it was -0.303; in the test with 4H2705-AA it was 0.603; in the test with 4H2758-AA, 0.775; with 4H278-AA it was 2.13. For the same molecule, the interaction score was 0.239 with 4H2873-AA; 0.209 with 4H2985-AA; 0.777 with 4H3134-AA; 0.672 with 4H3409-AA; -0.876 in the test with 4H3625-AA; 1.2 with 4H390-AA. Besides, the interaction score with 4H3940-AA was -0.784; in the test with 4H510-AA it was -1.47; with 4H775-AA, -0.904; with 4H816-AA it was -0.458; in the test with 4H87-AA, 0.81.

B2: 4H2696-bH (peptide)
chain: DKIQELKKENEELEREIWELEKKNQELKR
Consider B2, for which the interaction score in the test with 4H2696-bH is 0.576; with 4H2883-bH, 1.5; in the test with 4H2937-bH it was 1.47; with 4H2944-bH, -0.0809; with 4H342-bH, 0.972; with 4H48-bH, 1.04. In the test with 4H491-bH, the interaction score is 1.73.

The values are drawn from article PMC10397247.
